Patent publication US20170101464A1

Biological target: hTEM8-AP (UniProt Q9H6X2)
Assay: Biacore affinity measurement, Fab

Chain of UniProt Q9H6X2 (Q9H6X2 33-321): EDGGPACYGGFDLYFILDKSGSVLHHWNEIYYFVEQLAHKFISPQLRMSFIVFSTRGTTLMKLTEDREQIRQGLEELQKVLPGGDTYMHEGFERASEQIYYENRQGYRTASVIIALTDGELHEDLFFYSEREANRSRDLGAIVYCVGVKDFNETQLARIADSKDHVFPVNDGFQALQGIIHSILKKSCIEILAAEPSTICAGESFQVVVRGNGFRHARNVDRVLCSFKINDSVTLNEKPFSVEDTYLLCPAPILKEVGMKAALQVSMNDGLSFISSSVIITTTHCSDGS

B1: M825 anti-TEM8 Fab (Fab, V domains shown)
VH: QVQLVQSGAEVKKPGTSVKVSCKVPGYTFSSYAISWVRQAPGQGLEWMGGIIPIFGTTNYAQKFQGRVTITGEESTSTVYMELSSLRSEDTAVYYCARDTDYMFDYWGQGTLVTVSS
VL: SSELTQDPVVSVALGETVSITCQGDNLRDFYASWYQQKPGQAPLLVMYGKNRRPSGIPDRFSGSTSGNTLSLTITGAQAEDEADYYCSSRDNSKHVVFGGGTKVTVL
With B1 the Kd was 0.0591 nM, the koff was 0.00018 s⁻¹ and the kon was 3.05e+06 M⁻¹ s⁻¹.
